One block for each binder: values may come before it.
Molecular target: hCD40-P227A, gain-of-function polymorphism of the human CD40 receptor (human, UniProt P25942 21-277, P227A)
Test: co-IP

hCD40-P227A, gain-of-function polymorphism of the human CD40 receptor, sequence (P25942 21-277 P227A): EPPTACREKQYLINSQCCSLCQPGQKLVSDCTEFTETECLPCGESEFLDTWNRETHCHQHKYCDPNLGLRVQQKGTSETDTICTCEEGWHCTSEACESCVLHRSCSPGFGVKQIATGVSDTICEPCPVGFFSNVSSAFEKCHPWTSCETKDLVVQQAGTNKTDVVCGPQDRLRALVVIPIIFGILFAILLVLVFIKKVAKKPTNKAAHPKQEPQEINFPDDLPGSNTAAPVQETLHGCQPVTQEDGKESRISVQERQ

fold bound relative to Wt-hCD40: 2 fold
B1: TNF receptor associated factor 3 (TRAF3) (natural protein, mouse (endogenous in CH12.LX), UniProt Q60803 1-567, looked up)
chain: MESSKKMDAAGTLQPNPPLKLQPDRGAGSVLVPEQGGYKEKFVKTVEDKYKCEKCRLVLCNPKQTECGHRFCESCMAALLSSSSPKCTACQESIIKDKVFKDNCCKREILALQVYCRNEGRGCAEQLTLGHLLVHLKNECQFEELPCLRADCKEKVLRKDLRDHVEKACKYREATCSHCKSQVPMIKLQKHEDTDCPCVVVSCPHKCSVQTLLRSELSAHLSECVNAPSTCSFKRYGCVFQGTNQQIKAHEASSAVQHVNLLKEWSNSLEKKVSLLQNESVEKNKSIQSLHNQICSFEIEIERQKEMLRNNESKILHLQRVIDSQAEKLKELDKEIRPFRQNWEEADSMKSSVESLQNRVTELESVDKSAGQAARNTGLLESQLSRHDQMLSVHDIRLADMDLRFQVLETASYNGVLIWKIRDYKRRKQEAVMGKTLSLYSQPFYTGYFGYKMCARVYLNGDGMGKGTHLSLFFVIMRGEYDALLPWPFKQKVTLMLMDQGSSRRHLGDAFKPDPNSSSFKKPTGEMNIASGCPVFVAQTVLENGTYIKDDTIFIKVIVDTSDLPDP

fold bound relative to Wt-hCD40: 2 fold
B2: TNF receptor associated factor 5 (TRAF5) (natural protein, mouse (endogenous in CH12.LX), UniProt P70191 1-558, looked up)
chain: MAHSEEQAAVPCAFIRQNSGNSISLDFEPDTEYQFVEQLEERYKCAFCHSVLHNPHQTGCGHRFCQQCIRSLRELNSVPICPVDKEVIKPQEVFKDNCCKREVLNLHVYCKNAPGCNARIILGRFQDHLQHCSFQAVPCPNESCREAMLRKDVKEHLSAYCRFREEKCLYCKRDIVVTNLQDHEENSCPAYPVSCPNRCVQTIPRARVNEHLTVCPEAEQDCPFKHYGCTVKGKRGNLLEHERAALQDHMLLVLEKNYQLEQRISDLYQSLEQKESKIQQLAETVKKFEKELKQFTQMFGRNGTFLSNVQALTSHTDKSAWLEAQVRQLLQIVNQQPSRLDLRSLVDAVDSVKQRITQLEASDQRLVLLEGETSKHDAHINIHKAQLNKNEERFKQLEGACYSGKLIWKVTDYRVKKREAVEGHTVSVFSQPFYTSRCGYRLCARAYLNGDGSGKGTHLSLYFVVMRGEFDSLLQWPFRQRVTLMLLDQSGKKNHIVETFKADPNSSSFKRPDGEMNIASGCPRFVSHSTLENSKNTYIKDDTLFLKVAVDLTDLEDL

Reference: PMC3040440 (Journal of immunology (Baltimore, Md. : 1950), 2010)
